Data taken from patent US11702475B2, “Cysteine engineered fibronectin type III domain binding molecules” (Janssen Biotech, Inc., priority 2013, dated 2023).
Residue numbers refer to the chain shown, from its start. Where “and” joins values, the source holds several entries; their conditions need not be identical. Equal entries are not always repeated.

B1: V9C (conjugate)
chain: LPAPKNLVCSEVTEDSARLSWDDPWAFYESFLIQYQESEKVGEAIVLTVPGSERSYDLTGLKPGTEYTVSIYGVHNVYKDTNMRGLPLSAIFTT
modifications: left off: small tags and cut ends
B2: P63C (conjugate)
chain: B1 chain with C9V, P63C
modifications: left off: small tags and cut ends
B3: G51C (conjugate)
chain: B1 chain with C9V, G51C
modifications: left off: small tags and cut ends
B4: R18C (conjugate)
chain: B1 chain with C9V, R18C
modifications: left off: small tags and cut ends
B5: V12C (conjugate)
chain: B1 chain with C9V, V12C
modifications: left off: small tags and cut ends
B6: G42C (conjugate)
chain: B1 chain with C9V, G42C
modifications: left off: small tags and cut ends
B7: V49C (conjugate)
chain: B1 chain with C9V, V49C
modifications: left off: small tags and cut ends
B8: E39C (conjugate)
chain: B1 chain with C9V, E39C
modifications: left off: small tags and cut ends
B9: P50C (conjugate)
chain: B1 chain with C9V, P50C
modifications: left off: small tags and cut ends
B10: E29C (conjugate)
chain: B1 chain with C9V, E29C
modifications: left off: small tags and cut ends
B11: T13C (conjugate)
chain: B1 chain with C9V, T13C
modifications: left off: small tags and cut ends
B12: R84C (conjugate)
chain: B1 chain with C9V, R84C
modifications: left off: small tags and cut ends
B13: K5C (conjugate)
chain: B1 chain with K5C, C9V
modifications: left off: small tags and cut ends
B14: V77C (conjugate)
chain: B1 chain with C9V, V77C
modifications: left off: small tags and cut ends
B15: P87C (conjugate)
chain: B1 chain with C9V, P87C
modifications: left off: small tags and cut ends
B16: T81C (conjugate)
chain: B1 chain with C9V, T81C
modifications: left off: small tags and cut ends
B17: P4C (conjugate)
chain: B1 chain with P4C, C9V
modifications: left off: small tags and cut ends
B18: Y78C (conjugate)
chain: B1 chain with C9V, Y78C
modifications: left off: small tags and cut ends
B19: H75C (conjugate)
chain: B1 chain with C9V, H75C
modifications: left off: small tags and cut ends
B20: D80C (conjugate)
chain: B1 chain with C9V, D80C
modifications: left off: small tags and cut ends
B21: S55C (conjugate)
chain: B1 chain with C9V, S55C
modifications: left off: small tags and cut ends
B22: N82C (conjugate)
chain: B1 chain with C9V, N82C
modifications: left off: small tags and cut ends
B23: A3C (conjugate)
chain: B1 chain with A3C, C9V
modifications: left off: small tags and cut ends
B24: N76C (conjugate)
chain: B1 chain with C9V, N76C
modifications: left off: small tags and cut ends
B25: M83C (conjugate)
chain: B1 chain with C9V, M83C
modifications: left off: small tags and cut ends
B26: K79C (conjugate)
chain: B1 chain with C9V, K79C
modifications: left off: small tags and cut ends
B27: G85C (conjugate)
chain: B1 chain with C9V, G85C
modifications: left off: small tags and cut ends
B28: G73C (conjugate)
chain: B1 chain with C9V, G73C
modifications: left off: small tags and cut ends
B29: P2C (conjugate)
chain: B1 chain with P2C, C9V
modifications: left off: small tags and cut ends
B30: L86C (conjugate)
chain: B1 chain with C9V, L86C
modifications: left off: small tags and cut ends
B31: WT: Tencon (SEQ ID NO: 265) cysteine variant conjugated to VC-MMAF as a negative control (conjugate)
chain: LPAPKNLVVSEVTEDSLRLSWTAPDAAFDSFLIQYQESEKVGEAINLTVPGSERSYDLTGLKPGTEYTVSIYGVKGGHRSNPLSAEFTTGGHHHHHHC
modifications: VC-MMAF conjugated via cysteine; Tencon FN3 scaffold

System: not listed separately
Test: Thermal stability of cysteine-NEM conjugates by DSC
Type: physicochemical
Conditions: DSC 25-100 °C, 1 °C per minute
Description: The thermal stability of cysteine-NEM conjugates was assessed by differential scanning calorimetry (DSC). The only the conjugates tested were those determined to express at high levels, conjugate efficiently, and retain EGFR binding. Additionally, cysteine variants within the BC and FG loops were excluded. Stability data was generated by heating a 400 μL aliquot of the variant from 25° C. to 100° C. at a scan rate of 1° C. per minute in a VP-DSC instrument (MicroCal). A second identical scan was completed on the sample in order to assess the reversibility of thermal folding/unfolding. Data was fitted to a 2-state unfolding model in order to calculate the melting temperature (Table 10).
For B1, the “First Scan Tm” value was 46 °C. With B2 the “First Scan Tm” value was 60 °C. In the case of B3, the “First Scan Tm” value is reported as 61 °C. For B4, the “First Scan Tm” value was 62 °C. With B5 the “First Scan Tm” value was 58 °C. In the case of B6, the “First Scan Tm” value is reported as 65 °C. In the case of B7, the “First Scan Tm” value is reported as 54 °C. In the case of B8, the “First Scan Tm” value is reported as 67 °C. With B9 the “First Scan Tm” value was 63 °C. For B10, the “First Scan Tm” value was 63 °C. With B11 the “First Scan Tm” value was 63 °C.

Same assay, conditions: second identical scan
In the case of B1, the “Second Scan Tm” value is reported as 46 °C. With B2 the “Second Scan Tm” value was 62 °C. In the case of B3, the “Second Scan Tm” value is reported as 61 °C. For B4, the “Second Scan Tm” value was 62 °C. In the case of B5, the “Second Scan Tm” value is reported as 58 °C. In the case of B6, the “Second Scan Tm” value is reported as 67 °C. In the case of B7, the “Second Scan Tm” value is reported as 55 °C. With B8 the “Second Scan Tm” value was 69 °C. In the case of B9, the “Second Scan Tm” value is reported as 65 °C. With B10 the “Second Scan Tm” value was 66 °C. With B11 the “Second Scan Tm” value was 63 °C.

System: not listed separately
Test: Analytical size exclusion chromatography (percent monomer)
Type: physicochemical
Conditions: NEM-conjugated cysteine variants; SEC, Abs280 monomer region 5.5-6 minutes vs oligomer region 4-5.3 minutes
Description: Size exclusion chromatography was used to determine the aggregation state of the FN3 domains binding EGFR. Aliquots (10 μL) of each purified FN3 domain were injected onto a Superdex 75 5/150 column (GE Healthcare) at a flow rate of 0.3 mL/min in a mobile phase of PBS pH 7.4. Elution from the column was monitored by absorbance at 280 nm.
The percent monomer for each protein was determined by integrating the Abs280 signal and comparing the peak in the monomer region (5.5-6 minutes) to the peaks in the oligomer region (4-5.3 minutes).
For B1, the Percent monomer was “double peak”. With B12 the Percent monomer was 100%. Molecule B2 has a Percent monomer of 92%. B13 gave a Percent monomer of 100%. With B14 the Percent monomer was 92%. With B15 the Percent monomer was 98%. B3 showed a Percent monomer of 96%. Work on B4 yielded a Percent monomer of 93%. Work on B16 yielded a Percent monomer of 86%. B17 showed a Percent monomer of 100%. In the case of B5, the Percent monomer is reported as 66%. With B6 the Percent monomer was 87%. B18 showed a Percent monomer of 90%. B19 gave a Percent monomer of 100%. With B20 the Percent monomer was 79%. B21 showed a Percent monomer of 100%. B22 showed a Percent monomer of 100%. B23 showed a Percent monomer of 100%. With B7 the Percent monomer was 88%. For B8, the Percent monomer was 100%. B24 gave a Percent monomer of 94%. For B25, the Percent monomer was 91%. For B26, the Percent monomer was 100%. B9 gave a Percent monomer of 100%. B27 showed a Percent monomer of 95%. B28 gave a Percent monomer of 66%. With B29 the Percent monomer was 86%. B30 showed a Percent monomer of 83%. For B10, the Percent monomer was 85%. B11 showed a Percent monomer of 82%.

System: EGFR-overexpressing human tumor cell line H1573
Test: Cytotoxicity assay in H1573 cells
Type: cell-based
Conditions: cysteine variants conjugated to VC-MMAF, Cell TiterGlo at 70 hours, read-out: IC50
Description: Cell killing was assessed by measuring viability of the EGFR-overexpressing human tumor cell line H1573 following exposure to the cysteine variant-cytotoxin conjugates. Cells were plated in black-well, clear bottomed, tissue culture-treated plates (Falcon 353219) at 7000/well in 100 μL/well of phenol red free RPMI media (Gibco 11835-030) with 5% fetal bovine serum (Gibco). Cells were allowed to attach overnight at 37° C. in a humidified 5% CO2 atmosphere. Medium was aspirated from 96-well plate and cells were treated with 50 uL of fresh media and 50 uL of 2× inhibitor made up in fresh media. Cell viability was determined by an endpoint assay with Cell TiterGlo (Promega) at 70 hours. IC50 values were determined by fitting data to the equation for a sigmoidal dose response with variable slope using GraphPad Prism 5 (GraphPad Software). Table 11 reports IC50 values obtained from analysis of the CellTiter Glo data.
Conjugates consisting of ECB147 cysteine variants, 83v2-cys, or Tencon-cys linked to a cytotoxic tubulin inhibitor from the auristatin family (FIG. 2) were tested for target-dependent cytotoxicity in cancer cells. The inhibitor was linked to the cysteine-containing protein via a non-cleavable PEG4 linker or an enzyme-cleavable valine-citrulline or valine-lysine linker. Cell killing was assessed by measuring viability of the EGFR-overexpressing human tumor cell lines H1573 and A431 as well as the EGFR-negative tumor cell line MDA-MB-435 following exposure to the protein-cytotoxin conjugates using the procedure described in Example 4.
In the case of B31, the IC50 is reported as 146 nM and 166 nM.
